Among the data in article PMC7105484, “Crystal structures of REF6 and its complex with DNA reveal diverse recognition mechanisms” (Cell Discovery, 2020) are Kd values, retold here.

Common to all, as to test: MST; MST: 20 mM HEPES pH 7.3, 150 mM NaCl, 0.2 mM TCEP, 0.5% CA-630, 25 C; EMSA: 30 uM protein, 10 uM dsDNA, 20 mM Tris pH 8.0, 100 mM NaCl, 2.5 mM MgCl2, 0.1% CA-630, 10% glycerol, 1 uM ZnSO4, 1 mM DTT, 4 C
Details in all cases: protein: recombinant; tags: His6-MBP or GST, TEV-cleavable; label: FAM in MST; none in crystal and EMSA; 5' overhang 1 nt on both strands, 15 bp

One series deals with T1, REF6 K1281A (Arabidopsis thaliana, UniProt Q9STM3 1223-1360, K1281A).
T1 sequence: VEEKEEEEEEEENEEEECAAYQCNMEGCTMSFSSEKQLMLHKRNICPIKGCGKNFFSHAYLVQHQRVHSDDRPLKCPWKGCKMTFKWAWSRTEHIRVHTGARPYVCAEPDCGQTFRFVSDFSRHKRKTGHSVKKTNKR

The target of a further series is T2, REF6 V1340A (Arabidopsis thaliana, UniProt Q9STM3 1223-1360, V1340A).
T2 sequence: T1 sequence with A59K, V118A

A further series has as its target T3, REF6 W1309A (Arabidopsis thaliana, UniProt Q9STM3 1223-1360, W1309A).
T3 sequence: T1 sequence with A59K, W87A

Changes are numbered by the printed parent chain.

B1: NAC004 m5 (dsDNA)
DNA 1: CTTTCTCTGTTTTGTC
DNA 2: GGACAAAACAGAGAAA
Consider B1, for which the Kd in the series with REF6 K1281A stood at 1300 nM; with REF6 V1340A, 500 nM; in the series with REF6 W1309A, 58500 nM.
